Results taken from PMC6113376.

Legend:
[1] = biological target: porcine GP2 isoform 1, incompletely deglycosylated under native conditions (pig); assay: static adhesion assay (bacteria on coated protein); porcine GP2 incubated in native conditions with (NE) or without (N) deglycosylation enzymes, coated; S. Typhimurium 5744 wild type and its fimH deletion mutant added
[2] = biological target: porcine GP2 isoform 2, incompletely deglycosylated under native conditions (pig); assay: as above

In the case of “FimH of Salmonella Typhimurium wild type strain Tym5744 (from UniProt P37925 23-335) (natural protein)”, the percent decrease of binding against GP2 that was not digested [1] is reported as 59% and the percent decrease of binding against GP2 that was not digested [2] is reported as 53%.
